According to patent US12247058 (Bristol-Myers Squibb, dated 2025):
Non-standard residues stand in square brackets, D forms with d. Phe(4-Ac) = CC(=O)c1ccc(C[C@H](N)C(=O)O)cc1

T1: human β-klotho with a C-terminal FLAG tag, stably expressed in a clonal HEK-293 cell line (human, UniProt Q86Z14 1-1044)
T1 sequence: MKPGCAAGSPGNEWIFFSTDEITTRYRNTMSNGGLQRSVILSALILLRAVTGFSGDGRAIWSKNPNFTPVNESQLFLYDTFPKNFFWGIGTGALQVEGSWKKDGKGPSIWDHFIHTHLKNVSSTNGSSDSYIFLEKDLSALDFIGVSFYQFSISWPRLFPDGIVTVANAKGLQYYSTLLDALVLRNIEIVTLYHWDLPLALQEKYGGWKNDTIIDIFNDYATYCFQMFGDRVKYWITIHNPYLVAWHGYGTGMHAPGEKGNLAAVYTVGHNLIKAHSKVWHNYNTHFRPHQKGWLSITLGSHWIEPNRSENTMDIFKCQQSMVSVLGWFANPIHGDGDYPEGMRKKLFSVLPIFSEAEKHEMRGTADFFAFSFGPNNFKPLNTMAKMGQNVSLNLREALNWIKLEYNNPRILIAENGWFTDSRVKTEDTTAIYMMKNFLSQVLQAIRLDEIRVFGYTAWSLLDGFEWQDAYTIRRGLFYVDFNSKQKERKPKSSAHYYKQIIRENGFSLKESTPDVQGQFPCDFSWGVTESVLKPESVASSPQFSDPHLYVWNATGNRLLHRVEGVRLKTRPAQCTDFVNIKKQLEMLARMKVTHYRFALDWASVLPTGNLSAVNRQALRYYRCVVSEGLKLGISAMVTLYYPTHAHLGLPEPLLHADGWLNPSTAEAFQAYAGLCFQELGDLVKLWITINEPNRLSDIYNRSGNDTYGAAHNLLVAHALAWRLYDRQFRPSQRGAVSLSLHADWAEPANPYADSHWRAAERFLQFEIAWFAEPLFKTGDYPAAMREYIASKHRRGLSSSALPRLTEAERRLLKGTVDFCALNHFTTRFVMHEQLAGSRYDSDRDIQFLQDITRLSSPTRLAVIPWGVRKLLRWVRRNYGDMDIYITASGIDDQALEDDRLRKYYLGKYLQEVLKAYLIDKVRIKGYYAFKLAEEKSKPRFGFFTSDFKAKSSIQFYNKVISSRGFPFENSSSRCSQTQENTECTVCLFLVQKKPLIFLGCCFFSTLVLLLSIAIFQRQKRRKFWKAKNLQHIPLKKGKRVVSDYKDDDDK


molecular target: T1, human β-klotho with a C-terminal FLAG …; test: cell-based or functional assay

EC50 in the pERK assay	Binder
20 nM	Pegylated Compound 6 (ligand) MHPIPDSSPLLQFGGQVRQRYLYTDDAQQTEAHLEIREDGTVGGAADQSPESLLQLKALKPGVIQILGVKTSRFLCQRPDGALYGSLHFDPEACSFRELLLEDGYNVY[Phe(4-Ac)](PEG 30 kDa)SEAHGLPLHLPGHKSRDPAPRGPARFLPLPGLPPAPPEPPGILAPQPPDVGSSDPLSMVEPSQGRSPSYAS
39 nM	Pegylated Compound 12 (ligand) MHPIPDSSPLLQFGGQVRQRYLYTDDAQQTEAHLEIREDGTVGGAADQSPESLLQLKALKPGVIQILGVKTSRFLCQRPDGALYGSLHFDPEACSFRELLLEDGYNVY[Phe(4-Ac)](PEG about 30 kDa)SEAHGLPLHLPHHSGRDPAPRGPARFLPLPGLPPAPPEPPGILAPQPPDVGSSDPLSMVEPSQGRSPSYAS
28 nM	Pegylated Compound 10 (ligand) MHPIPDSSPLLQFGGQVRQRYLYTDDAQQTEAHLEIREDGTVGGAADQSPESLLQLKALKPGVIQILGVKTSRFLCQRPDGALYGSLHFDPEACSFRELLLEDGYNVY[Phe(4-Ac)](PEG about 30 kDa)SEAHGLPLHLGSGGPARFLPLPGLPPAPPEPPGILAPQPPDVGSSDPLSMVEPSQGRSPSYAS
30 nM	Pegylated Compound 11 (ligand) MHPIPDSSPLLQFGGQVRQRYLYTDDAQQTEAHLEIREDGTVGGAADQSPESLLQLKALKPGVIQILGVKTSRFLCQRPDGALYGSLHFDPEACSFRELLLEDGYNVY[Phe(4-Ac)](PEG about 30 kDa)SEAHGLPLHLGSGHRDPAPRGPARFLPLPGLPPAPPEPPGILAPQPPDVGSSDPLSMVEPSQGRSPSYAS
36 nM	Pegylated Compound 22 (ligand) MHPIPDSSPLLQFGGQVRQRYLYTDDAQQTEAHLEIREDGTVGGAADQSPESLLQLKALKPGVIQILGVKTSRFLCQRPDGALYGSLHFDPEACSFRELLLEDGYNVY[Phe(4-Ac)](PEG 30 kDa)SEAHGLPLHLSGGPAPRGPARFLPLPGLPPAPPEPPGILAPQPPDVGSSDPLSMVEPSQGRSPSYAS
30 nM	Pegylated Compound 19 (ligand) MHPIPDSSPLLQFGGQVRQRYLYTDDAQQTEAHLEIREDGTVGGAADQSPESLLQLKALKPGVIQILGVKTSRFLCQRPDGALYGSLHFDPEACSFRELLLEDGYNVY[Phe(4-Ac)](PEG about 30 kDa)SEAHGLPLHLGSGPHRDPAPRGPARFLPLPGLPPAPPEPPGILAPQPPDVGSSDPLSMVEPSQGRSPSYAS
24 nM	Pegylated Compound 5 (ligand) MHPIPDSSPLLQFGGQVRQRYLYTDDAQQTEAHLEIREDGTVGGAADQSPESLLQLKALKPGVIQILGVKTSRFLCQRPDGALYGSLHFDPEACSFRELLLEDGYNVY[Phe(4-Ac)](PEG 30 kDa)SEAHGLPLHLPGDKSRDPAPRGPARFLPLPGLPPAPPEPPGILAPQPPDVGSSDPLSMVEPSQGRSPSYAS
30 nM	Pegylated Compound 21 (ligand) MHPIPDSSPLLQFGGQVRQRYLYTDDAQQTEAHLEIREDGTVGGAADQSPESLLQLKALKPGVIQILGVKTSRFLCQRPDGALYGSLHFDPEACSFRELLLEDGYNVY[Phe(4-Ac)](PEG about 30 kDa)SEAHGLPLHLGSGRDPAPRGPARFLPLPGLPPAPPEPPGILAPQPPDVGSSDPLSMVEPSQGRSPSYAS
42 nM	Pegylated Compound 20 (ligand) MHPIPDSSPLLQFGGQVRQRYLYTDDAQQTEAHLEIREDGTVGGAADQSPESLLQLKALKPGVIQILGVKTSRFLCQRPDGALYGSLHFDPEACSFRELLLEDGYNVY[Phe(4-Ac)](PEG about 30 kDa)SEAHGLPLHLGGHRDPAPRGPARFLPLPGLPPAPPEPPGILAPQPPDVGSSDPLSMVEPSQGRSPSYAS

molecular target: T1, human β-klotho with a C-terminal FLAG …; test: cell-based or functional assay; remark: another data set of the same source

Binder	pERK EC50
Compound 11 (ligand) MHPIPDSSPLLQFGGQVRQRYLYTDDAQQTEAHLEIREDGTVGGAADQSPESLLQLKALKPGVIQILGVKTSRFLCQRPDGALYGSLHFDPEACSFRELLLEDGYNVYQSEAHGLPLHLGSGHRDPAPRGPARFLPLPGLPPAPPEPPGILAPQPPDVGSSDPLSMVEPSQGRSPSYAS	28.2 nM
Compound 2 (ligand) MHPIPDSSPLLQFGGQVRQRYLYTDDAQQTEAHLEIREDGTVGGAADQSPESLLQLKALKPGVIQILGVKTSRFLCQRPDGALYGSLHFDPEACSFRELLLEDGYNVYQSEAHGLPLHLGSGRGPARFLPLPGLPPAPPEPPGILAPQPPDVGSSDPLSMVEPSQGRSPSYAS	4.6 nM
Compound 19 (ligand) MHPIPDSSPLLQFGGQVRQRYLYTDDAQQTEAHLEIREDGTVGGAADQSPESLLQLKALKPGVIQILGVKTSRFLCQRPDGALYGSLHFDPEACSFRELLLEDGYNVYQSEAHGLPLHLGSGPHRDPAPRGPARFLPLPGLPPAPPEPPGILAPQPPDVGSSDPLSMVEPSQGRSPSYAS	5.1 nM
Compound 6 (ligand) MHPIPDSSPLLQFGGQVRQRYLYTDDAQQTEAHLEIREDGTVGGAADQSPESLLQLKALKPGVIQILGVKTSRFLCQRPDGALYGSLHFDPEACSFRELLLEDGYNVYQSEAHGLPLHLPGHKSRDPAPRGPARFLPLPGLPPAPPEPPGILAPQPPDVGSSDPLSMVEPSQGRSPSYAS	39.1 nM
Compound 12 (ligand) MHPIPDSSPLLQFGGQVRQRYLYTDDAQQTEAHLEIREDGTVGGAADQSPESLLQLKALKPGVIQILGVKTSRFLCQRPDGALYGSLHFDPEACSFRELLLEDGYNVYQSEAHGLPLHLPHHSGRDPAPRGPARFLPLPGLPPAPPEPPGILAPQPPDVGSSDPLSMVEPSQGRSPSYAS	31.9 nM
Compound 5 (ligand) MHPIPDSSPLLQFGGQVRQRYLYTDDAQQTEAHLEIREDGTVGGAADQSPESLLQLKALKPGVIQILGVKTSRFLCQRPDGALYGSLHFDPEACSFRELLLEDGYNVYQSEAHGLPLHLPGDKSRDPAPRGPARFLPLPGLPPAPPEPPGILAPQPPDVGSSDPLSMVEPSQGRSPSYAS	69.2 nM
Compound 10 (ligand) MHPIPDSSPLLQFGGQVRQRYLYTDDAQQTEAHLEIREDGTVGGAADQSPESLLQLKALKPGVIQILGVKTSRFLCQRPDGALYGSLHFDPEACSFRELLLEDGYNVYQSEAHGLPLHLGSGGPARFLPLPGLPPAPPEPPGILAPQPPDVGSSDPLSMVEPSQGRSPSYAS	21.9 nM
Compound 3 (ligand) MHPIPDSSPLLQFGGQVRQRYLYTDDAQQTEAHLEIREDGTVGGAADQSPESLLQLKALKPGVIQILGVKTSRFLCQRPDGALYGSLHFDPEACSFRELLLEDGYNVYQSEAHGLPLHLPGNKSPHRDPAPRGPARFLPLPGLPPAPPEPPGILAPQPPDVGSSDPLSMVEPSQGRSPSYAS	28 nM
Compound 7 (ligand) MHPIPDSSPLLQFGGQVRQRYLYTDDAQQTEAHLEIREDGTVGGAADQSPESLLQLKALKPGVIQILGVKTSRFLCQRPDGALYGSLHFDPEACSFRELLLEDGYNVYQSEAHGLPLHLPGDKSPHRDPAPRGPARFLPLPGLPPAPPEPPGILAPQPPDVGSSDPLSMVEPSQGRSPSYAS	28.4 nM
Compound 20 (ligand) MHPIPDSSPLLQFGGQVRQRYLYTDDAQQTEAHLEIREDGTVGGAADQSPESLLQLKALKPGVIQILGVKTSRFLCQRPDGALYGSLHFDPEACSFRELLLEDGYNVYQSEAHGLPLHLGGHRDPAPRGPARFLPLPGLPPAPPEPPGILAPQPPDVGSSDPLSMVEPSQGRSPSYAS	3.9 nM

Further lines, results first:

pERK EC50	Binder
4.1 nM	Compound 22 (ligand) MHPIPDSSPLLQFGGQVRQRYLYTDDAQQTEAHLEIREDGTVGGAADQSPESLLQLKALKPGVIQILGVKTSRFLCQRPDGALYGSLHFDPEACSFRELLLEDGYNVYQSEAHGLPLHLSGGPAPRGPARFLPLPGLPPAPPEPPGILAPQPPDVGSSDPLSMVEPSQGRSPSYAS
30 nM	Compound 23 (ligand) MHPIPDSSPLLQFGGQVRQRYLYTDDAQQTEAHLEIREDGTVGGAADQSPESLLQLKALKPGVIQILGVKTSRFLCQRPDGALYGSLHFDPEACSFRELLLEDGYNVYQSEAHGLPLHLGGGPARFLPLPGLPPAPPEPPGILAPQPPDVGSSDPLSMVEPSQGRSPSYAS
